In test [1] the target is T1, human interleukin-2 (recombinant human IL-2, teceleukin) (human, UniProt P60568 21-153).
T1 construct: also called hIL-2; rhIL-2
Briefly: SPR (Table 1).

Test [2] deals with T1, human interleukin-2 (recombinant human …). Kind of test: SPR, mAb immobilized, IL-2 injected. The protocol:
Chip surface was regenerated after every cycle using glycine buffer pH 1.5. Measurements were acquired at 20° C. and analysed on a Biacore T100 (GE Healthcare).
A general note: In SPR one partner is held on a chip, and binding of the other changes the refractive index at the surface.

For test [3] the target is unchanged. Briefly: single-cycle surface plasmon resonance (SPR).
The target is the same in test [4]. Kind of test: single-cycle SPR.
The next test has as its target T2, mouse IL-2 (mouse, UniProt P04351 21-169).
T2 sequence (looked up): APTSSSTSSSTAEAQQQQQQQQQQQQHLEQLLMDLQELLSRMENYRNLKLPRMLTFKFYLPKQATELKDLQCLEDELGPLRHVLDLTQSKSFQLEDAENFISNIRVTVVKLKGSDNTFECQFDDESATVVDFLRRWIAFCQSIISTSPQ
Kind of test: SPR (Table 1).

The term Kd denotes the concentration at which binding is half-saturated. One may read the koff as a measure of how fast the partners let go of each other. The term kon denotes the second-order rate constant of association.

T1 sequence (P60568 21-153 limits assumed): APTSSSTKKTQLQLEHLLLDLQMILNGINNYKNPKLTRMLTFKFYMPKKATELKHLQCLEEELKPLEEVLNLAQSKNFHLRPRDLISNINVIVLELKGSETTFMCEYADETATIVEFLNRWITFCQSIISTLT

B1: F5111 (anti-human IL-2 mAb) (antibody, V domains shown)
VH: QLQLQESGPGLVKPSQTLSLTCTVSGGSISSGGYYWSWIRQHPGKGLEWIGYIYYSGSTYYNPSLKSRVTISVDTSKNQFSLKLSSVTAADTAVYYCARTPTVTGDWFDPWGRGTLVTVSS
VL: NFMLTQPHSVSESPGKTVTISCTRSSGSIASNYVQWYQQRPGSSPTTVIYEDNQRPSGVPDRFSGSIDSSSNSASLTISGLKTEDEADYYCQSYDSSNVVFGGGTKLTVL
With B1, in test [1], the Kd was found to be 1.88 nM, the koff came to 0.00711 s⁻¹ and the kon is 3.78e+06 M⁻¹ s⁻¹.

B2: UFKA-20 (mouse anti-human IL-2 monoclonal antibody) (antibody, V domains shown)
VH: EVMLVESGGGLVKPGGSLKLSCAASGFSFSNYAMSWVRQTPERRLEWVALISGGGSYSYYPDSLKGRFTISRDSARNSLYLQMSSLRSEDTAMYYCARHMGYNDYLAWFAYWGQGTLVTVSS
VL: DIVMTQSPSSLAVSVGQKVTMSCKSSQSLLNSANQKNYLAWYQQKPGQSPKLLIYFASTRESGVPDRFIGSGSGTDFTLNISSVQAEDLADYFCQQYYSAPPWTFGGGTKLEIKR
notes: Full mouse heavy and light chains; also called UFKA-20-00; 1+6
As for B2, in test [2], the Kd was found to be 2.3 nM, the koff was 0.000391 s⁻¹ and the kon amounted to 257000 M⁻¹ s⁻¹. In addition, the Kd in test [3] turned out to be 0.788 nM.

B3: 105 + 9 (antibody, V domains shown)
VH: EVMLVESGGGLVKPGGSLKLSCAASGFSFSNYAMSWVRQTPERRLEWVALISGGGSYSYYPDSLKGRFTISRDSARNSLYLQMSSLRSEDTAMYYCARHMGYNDALAWFAYWGQGTLVTVSS
VL: DIVMTQSPSSLAVSVGQKVTMSCKSSQSLLNSANQRNYLAWYQQKPGQSPKLLIYWASTRESGVPDRFIGSGSGTDFTLNISSVQAEDLADYFCQQYYSAPPWTFGGGTKLEIKR
notes: UFKA-20 variant; also called UFKA-20 variant 105+9; vH chain 105, vL chain 9; copies: 2 + 2
Regarding B3, in test [3], the Kd was 0.271 nM.

B4: UFKA-20 variant 5+9 (antibody, V domains shown)
VH: EVMLVESGGGLVKPGGSLKLSCAASGFSFSNYAMSWVRQTPERRLEWVALISGGGRYSYYPDSLKGRFTISRDSARNSLYLQMSSLRSEDTAMYYCARHLGHNDYLAWFAYWGQGTLVTVSS
VL: DIVMTQSPSSLAVSVGQKVTMSCKSSQSLLNSANQRNYLAWYQQKPGQSPKLLIYWASTRESGVPDRFIGSGSGTDFTLNISSVQAEDLADYFCQQYYSAPPWTFGGGTKLEIKR
B4: the Kd in test [4] stood at 0.186 nM.

B5: UFKA-20 variant 2+9 (antibody, V domains shown)
VH: EVMLVESGGGLVKPGGSLKLSCAASGFSFSNYAMSWVRQTPERRLEWVALISGGGRYSYYPDSLKGRFTISRDSARNSLYLQMSSLRSEDTAMYYCARHMGKNDYLAWFAYWGQGTLVTVSS
VL: DIVMTQSPSSLAVSVGQKVTMSCKSSQSLLNSANQRNYLAWYQQKPGQSPKLLIYWASTRESGVPDRFIGSGSGTDFTLNISSVQAEDLADYFCQQYYSAPPWTFGGGTKLEIKR
As for B5, in test [4], the Kd amounted to 64 nM.

B6: JES6-1 (anti-mouse IL-2 mAb) (antibody, V domains shown)
VH: EIQLQQSGPELRRPGSSVKLSCKASGYNITDYLIHWVRHRPEHGLEWIGWIDPEDGETRYAQKFQSKATLTADTSSNAAYMQLSSLTPEDTATYFCARSLDSTYIYPFAYWGQGTLVTVSS
VL: DIVMTQSPFSLAVSEGEMVTINCKSSQSLLSSGNQKNYLAWYQQKPGQSPKLLIYYASTGQSGVPDRFIGSGSGTDFTLTISDVQAEDLADYYCLQHYISPPTFGAGTKLELK
B6 gave a Kd in the test with mouse IL-2 of 5.6 nM.

B7: NARA1 (anti-human IL-2 mAb, CD122-biasing) (antibody, V domains shown)
VH: QVQLQQSGAELVRPGTSVKVSCKASGYAFTNYLIEWVKQRPGQGLEWIGVINPGSGGTNYNEKFKGKATLTADKSSSTAYMQLSSLTSDDSAVYFCARWRGDGYYAYFDVWGAGTTVTVSS
VL: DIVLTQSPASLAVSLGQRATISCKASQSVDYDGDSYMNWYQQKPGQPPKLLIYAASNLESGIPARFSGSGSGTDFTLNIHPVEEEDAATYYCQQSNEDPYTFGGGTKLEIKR
For B7, in test [2], the Kd was 4.2 nM, the off-rate (koff) amounted to 0.000117 s⁻¹ and the kon turned out to be 30000 M⁻¹ s⁻¹.

The values are drawn from patent US20230303680A1 (UNIVERSIT T Z RICH, published 2023).
